Test results from the DeepSol protein solubility set.

assay: soluble on expression in E. coli; label from the status in PepcDB or PDB records

Soluble on expression in E. coli, not soluble:
MKFIVKLQAEITIKSRPVRKRFTKILESSVKNVLRRIDEQVTTRMNWDNIEVNTKDNSPENRERLVEALKCIPGIPMFLEVQQSEFVDVHDIYEKTLAVHAESIENKTFCVRAKRTGNHDFNSLKVEQYVGGGLNQQVESAKVKLKNPDVTIHLEIKNKDLFIVTQRHKGLGGFPIATQEDVLSLMSGGFDSGVSSYQMIKKGARTHYCFFNLGGSAHEVGVKQISYYLWNKFGASHKVKFFAVDFEPVVAEILENVENSQMGVVLKRMMIRAATKIAERGKIQALVTGESLGQVSSQTLTNLNVINRVTDTLILRPLAAYDKQDIIDIARKIGTEEFSKTIPEYCGVISKKPTVKAVLSKVEEEEGNFDFDVLDKVVSETRVYDIRDIGKEAEEEIHAVDLVENIPENAVVVDIRSPEEEEDKPLELGDVEVKHIPFYKLSTQFGDLDMTKEYLLYCDHGVMSKLQALYLLDNGFKNVKVYRP
VAKATNAPLSVSKIDFKRGDDGSGRLILKFDGQGATPDLRTQGGTVLVDLGTAVLPTVLQRQINVVDFATPVQRIDAKPMGKGAQLVLSTKGAFESLAYQTGDEYVVEIVPRKGEAAM
MSLKILLLEDEVMLNESICEYLDSEGHHVESFFNGLAALEAIKENSYDLLVLDINVPGIDGLSFLEKIHELKIHVSVIYISALVDIEDISRAYTLGCHDYLKKPFHLKELSLRVDRIKLSSVVPRVHLRLCKNYSYDQENSTLLFNQEVQILTKRQAQIIDLLSRNRGRIVDFEQFQTYVWSEQIVDNATIRAEINRLKKNLKEDFVINVRGMGYMIDKEGHHHHHH
MGSDKIHHHHHHMNGGKPGVERDRREALLALAAALRPELHRYCARLMGSVIDGEDVVQDTFARAFVALDELCAVPQLRPWLFRIAHNRALDLLRSRATRVAEPIEAALEIVDDSKADAVETLMRKEAIETAVSRFAELPVVQRSVIILKDVLDEPLAEIAALLGISVDAVKAHLSRGRARLREINARTDPFPDARIASANVVRYINLFNQRDWDGLRALLAEDVRLQQSMHPPRSGAADVGMFFTIYAKSEGLWLKPAWVEGREVIAVFEHRAAPKPTHFMWLEWREGRISFIRDYRYVGYVADDARLVLASDVRSSGHGTKL
MSLATWSAERFGFGAALGDHDRARRAAVGEAVERYCGNAVPDALEIACYDDLARAGRPALDPATLALYSDRQYRARGFPFRPFTRQTPVAWVPGRDLYAGGPVLVPASMAYLNYFRGAHADEVATHAMLYAGIATGENREHAERFALEELFERDANTIWWASGAAGWAVADAAELLDRYDIAHGEGTGRTIRLFQVPSQFPVPVLAAFLEEPGRGLIAYGTACRADPREAATKALVEAFAMLELTAELADGDSAHWRAVARGEIPPHTYLPYRADRRYADDIRPDFRDLVDLPAVAQLYLDPRMQGRPLDRLRDDTRTTRLADIPRADGDANGGTAHRRYLDMLATQGLSAVSVDVTTPDVRAAGLTVVRVIVPGLYGNPPAAFPFLGGERLYDVPAQLGLAAGKITEDALYPYPIPHEGHHHHHH
MSARSLYQDTAVAALRDDLALALCAAAHHGLGEGVCNHFSVALPGQAGAFLLNPRGLMWSEVRAEDIVLVDAAGNKLAGRHEVEPTAMFIHAAIHQVAGKACVLHTHMPYATALTLTEARMLDTTLSQNAMRFHGRVAADRRYNGLALDAAEGERIARAMDGADIAFLGNHGVVVCGERIDYAFDDLYYLERACCAQVLAESSGRPLVPLDAALAASVAGQARSERLQSTLFFEALRRALGLEHHHHHH
MGSDKIHHHHHHMNILITGASGFIGRQLVERLAPHHQLTLLTRSVQQTQRILGNQHHYLESLDALSDLNHIDAIVNLAGEPIVAKRWSKNQKQRICDSRWDITARLTQLIQQSSNPPEIMVSGSAVGYYGRHDDKLLDESSGAHVEFSHDICRKWEQEALNANTEHTRVCIIRIGIVLGKGGALEKMLPPFKLGLGGPIGHGRQGMSWIHVQDLISLIDFLLSQEHCKGVFNATAPNPVSNAVFTKALGKALNRPALITTPPLALRLAMGEMSELLTEGQFVYPKRALEAGFQFQFSDLDNALTDVLAK
MGSDKIHHHHHHMDALEIHRFLKGKIRTALPVEKVDRETLSLLYTPGVADVARACAEDPEKTYVYTSRWNTVAVVSDGSAVLGLGNIGPYGALPVMEGKAFLFKAFADIDAFPICLSESEEEKIISIVKSLEPSFGGINLEDIGAPKCFRILQRLSEEMNIPVFHDDQQGTAVVVSAAFLNALKLTEKKIEEVKVVVNGIGAAGYNIVKFLLDLGVKNVVAVDRKGILNENDPETCLNEYHLEIARITNPERLSGDLETALEGADFFIGVSRGNILKPEWIKKMSRKPVIFALANPVPEIDPELAREAGAFIVATGRSDHPNQVNNLLAFPGIMKGAVEKRSKITKNMLLSAVEAIARSCEPEPERIIPEAFDMKVHLNVYTAVKGSA
MANEPQKSDDNGQAAEAVVTDDEIVLQDQQLKTIEDEQKSVPLVATLAPFSILCAEYDNETSAAFLSKATELSEVYGEIRYIRGDGNCFYRAILVGLIEIMLKDRARLEKFIASSRDWTRTLVELGFPDWTCTDFCDFFIEFLEKIHSGVHTEEAVYTILNDDGSANYILMFFRLITSAFLKQNSEEYAPFIDEGMTVAQYCEQEIEPMWKDADHLAINSLIKAAGTRVRIEYMDRTAAPNGGWHYDIPSDDQQIAPEITLLYRPGHYDVIYKKDSTEASEIEN
MQRKLKVTSLEPGTVVITEQAVDTCFKAEFEQIVLGKRVIRKTDLNKKLVQELLLCSAELSEFTTVVGNTMCTLDFYEGQGRLDGALCSYTEKDKQAYLEAAYAAGVRNIEMESSVFAAMCSACGLQAAVVCVTLLNRLEGDQISSPRNVLSEYQQRPQRLVSYFIKKKLSKA
FAVSSELSACGRARTYRVEGQLFYGSVEDFMAAFDFREPLERVTIDVSRAHIWDISSVQALDMAVLKFRREGAEVRIVGMNEASETLVDRLALHDRPGALDRLTAH
MENRRIVIITGANSGIGKEAAQRFANEGDHVIMACRNIAFSRKVQHDIIAASGNDHVDLLELDVSSFASIRTFCTTFNSQYKRLDILIHNAAYFNHGEPYRLSPDGIELTFATNVFGPYLLTSLLRDRLKQSEDPRILHAGSNIIKHFFDPKQTFDLDLLQGNHGTKSYSVYKMYCQSKMALMLLTFQMAEVFADDGIKVNALQINGAKMSKRTIQKVKPWWRPIAWGQNLFFPPPSYMADKYFTICTSDKYKQTTGKLFNDKLEIMEPSPTHYPGFFKQMKLLLGSNVYPAYENTNIREKLWALCKELVGELEHHHHHH
MAVYLDFENHIKEIQNEIELALIRGDEDAKEILEKRLDKEVKSIYSNLTDFQKLQLARHPDRPYAMDYIDLILKDKYEVFGDRHYNDDKAIVCFVGKIDNVPVVVIGEEKGRGTKNKLLRNFGMPNPCGYR
MSSDNLVENIIAEVLGKVGDLKTPSAASQPGISQQEPAIPRKLCGLTEFVGTATGDSIGLVIANVDSALLDAMHLEKKYRSIGILGARTGAGPQIMAADEAVKATNTEVVAIELARDTKGGAGHGSLVLFGGQDVSDVKRAVEVALGELERTFGDIYANAAGHVELQYTARASYALEKAFGAPLGRACGVIVGAPAAIGVLMADTAIKSANVDVVAYNSPAKGTSFTNEVILIVSGDSGAVRQAVRSARDVGLTLLETMGGKAPSATTPYI
MGSDKIHHHHHHMKVLNKPLEGVKVIDLTYFVAGPGTSKILADWGADVIKVEPSFGDPGRKTGATMTMPIDDYNNPFYSTYNSNKRGLSINLKSETGIEIMDKLLSEANVFVSSYRTGALKRLGLDYESLSKKHPHLIWGQINGFGDFGPAKDNAGFDTVAFWARSGAMLDIAEKDTSPINPPIAFGDATTSCSLSGGICAALYQQAKTGKGQKVMASLFGQAIWNASSLLASTQFSDEYPKTRKNAISPVINSYRCKDGKWIFLSILEHERYFEALCRLFGREDLIKEEKFASSVESKKNATELINILDGEFAKFTQNEMVEKLTAADIAHEKIQHVNDVVTDEQAIANNYIYEHTSKNGNKTMLASTPVKFGNIEVNMTCDAPLIGEHSDEILRELGYSDSDIEALIESGIVTMNKEACEIC

Soluble on expression in E. coli, soluble:
MRYDVVVVGSGVAGPIVARNVAKAGFSVLLVDKKPAIGAPKQCAEGLTINAFKQFDIPYDKRFINREIYGAKIYSPSGYTAELRYKEVSGVILERKVFDKMLAYYAAKAGAEVLARTEVVDVIRREGKIVGVKAKHEGEPMEIEAKVIVAADGVESTIARKAGIDTYAPPHEFDSGYEYEMIIEGFDPDLIHLFFGNEVAPRGYVWVFPKDEDRANVGIGINSDNEKTAKYYLDKWLKENNIPRNKILEVNVGLIPVGGFVKELVKENVLVVGDAARQVNPIHGGGMAEAMKASTIASKWIIKALEEENLELLKNYKEEWWKTEGPRMEKLLRLRRAMEKLTDEDLDVFVQLVSGTDLEKIAGGNYIEVVKALMKHPKVLMSRRRLEILKALLLEHHHHHH
MVVTRIAPSPTGDPHVGTAYIALFNYAWARRNGGRFIVRIEDTDRARYVPGAEERILAALKWLGLSYDEGPDVAAPTGPYRQSERLPLYQKYAEELLKRGWAYRAFETPEELEQIRKEKGGYDGRARNIPPEEAEERARRGEPHVIRLKVPRPGTTEVKDELRGVVVYDNQEIPDVVLLKSDGYPTYHLANVVDDHLMGVTDVIRAEEWLVSTPIHVLLYRAFGWEAPRFYHMPLLRNPDKTKISKRKSHTSLDWYKAEGFLPEALRNYLCLMGFSMPDGREIFTLEEFIQAFTWERVSLGGPVFDLEKLRWMNGKYIREVLSLEEVAERVKPFLREAGLSWESEAYLRRAVELMRPRFDTLKEFPEKARYLFTEDYPVSEKAQRKLEEGLPLLKELYPRLRAQEEWTEAALEALLRGFAAEKGVKLGQVAQPLRAALTGSLETPGLFEILALLGKERALRRLERALA
MSNIIARFHKIQVQDGVKVWYREAGAAGNPTILLLHGFPTSSNMFRNLIPLLAGQFHIIAPDLPGFGFTETPENYKFSFDSLCESIGYLLDTLSIEKFAMYIFDYGSPVGFRLALKFPSRITGIVTQNGNAYEEGLDDRFWGPLKEYWKSYQSDPVFVKSLIPYLEDPANVICQYHDGVPAIESVDPAAYTLDIALIQRTGQTDIQLRLFFDYQNNIKLYPAFQKFLRDSKIPVLVAWGANDTIFSVAGAEAYRKDVDNLKVVYYDTGHFALETHVVAIAEEIISMFAEN
MRVAIPAEDDRGIKSNVSKHFGRSRYFVFVDIEGEDVKNVEVVEVPFEEHGPGDLPNFIKDHGAKIVLTYGIGRRAIEYFNSLGISVVTGVYGRISDVIKAFIGGKLKIDYDWKEKIEKEH
MSLALDLLLLPTWLVPVEPAGVVLREHGLGIRDGHIVFIGPRAEALKYRATEIRELPDTLLTPGLINAHGHAAMTLFRGLADDLLLMTWLEKHIWPAEAKWVDEAFVRDGTDLAIAEQIKGGITCFSDMYFFPKVASERVHNSGMRAQVAIPILDFPIPGAQNADEAIRQGVELFGDLKHHPRINITFGPHAPYTVGDENLEKIRIIAEELDAAIHMHVHETAHEVQQSVEQHGERPLARLARLGLLGPRFQAVHMTQISDDDLALLVETNTSVIHCPESNLKLASGFCPVERLWQAGVNVAVGTDGAASNNDLDLLGETRTAALLAKAVAGSATALDAHRALRMATLNGARAMGLESQVGSLEIGKAADLTAFDLSGLAQQPIYDPVSQLIYATGRDCVKHVWVAGKQLLDDRCLTRLDEHQLGATARDWARRISGHEGHHHHHH
MHIKYDQAMDDETKVEAILYATRNPLSVRSISLILGIEAGAISRIIKKLRLEYKKRNTSLEIAKIGNKYRIQLKKEYYDFAYRVMEPELSKYETGFLATVALNEGASLSFFRKRYGSRTDDMISKLKTMSLIRTSKKGNGTAIYLGENFEKVFGITKKELLERATEYDRQN
